Laboratory results taken from US20160251440A1 (Ablynx, published 2016).

Assays:
[1] = target: T1, human IL-23R, cell-expressed (human, UniProt Q5VWK5 24-629); assay: FACS, Th17-differentiated T cells
T1 construct: whole, on cells
T1 sequence (looked up): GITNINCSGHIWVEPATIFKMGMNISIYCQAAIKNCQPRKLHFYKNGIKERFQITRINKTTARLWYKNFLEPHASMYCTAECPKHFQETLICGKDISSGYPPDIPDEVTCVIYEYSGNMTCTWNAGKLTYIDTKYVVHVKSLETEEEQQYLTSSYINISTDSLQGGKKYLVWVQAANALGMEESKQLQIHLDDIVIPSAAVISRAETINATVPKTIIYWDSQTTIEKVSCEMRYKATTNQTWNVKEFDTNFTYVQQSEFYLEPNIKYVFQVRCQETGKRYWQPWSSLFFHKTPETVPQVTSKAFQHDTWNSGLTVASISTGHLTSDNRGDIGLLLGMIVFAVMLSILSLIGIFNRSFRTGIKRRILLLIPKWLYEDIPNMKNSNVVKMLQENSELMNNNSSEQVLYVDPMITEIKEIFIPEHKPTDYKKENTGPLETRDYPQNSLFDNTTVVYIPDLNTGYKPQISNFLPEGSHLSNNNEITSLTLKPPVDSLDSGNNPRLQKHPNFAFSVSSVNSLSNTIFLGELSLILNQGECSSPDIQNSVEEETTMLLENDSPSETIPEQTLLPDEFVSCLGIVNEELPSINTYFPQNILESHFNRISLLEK

[2] = target: T2, human IL-23R extracellular domain Fc-fusion (human, UniProt Q5VWK5 24-355); assay: competition ELISA, coated IL-23 + IL-23R-Fc; IL-23 competition ELISA of Table 3.3
T2 construct: extracellular domain; bought; also called IL-23R-Fc
T2 sequence (looked up): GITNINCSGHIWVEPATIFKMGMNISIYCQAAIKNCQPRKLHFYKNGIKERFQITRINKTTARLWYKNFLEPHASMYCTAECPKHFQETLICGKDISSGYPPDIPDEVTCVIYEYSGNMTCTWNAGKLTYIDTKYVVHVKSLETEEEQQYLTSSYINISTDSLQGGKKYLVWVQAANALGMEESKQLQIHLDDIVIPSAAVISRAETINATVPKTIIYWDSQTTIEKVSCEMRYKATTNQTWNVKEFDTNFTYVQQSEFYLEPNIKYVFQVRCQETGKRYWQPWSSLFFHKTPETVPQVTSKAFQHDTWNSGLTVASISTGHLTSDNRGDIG

[3] = target: T2, human IL-23R extracellular domain …; assay: competition ELISA, coated IL-23 + 5 nM IL-23R-Fc
[4] = target: T3, human IL12Rβ1, cell-expressed (human, UniProt P42701 24-662); assay: flow cytometry on isolated CD8+ T cells of donor D863, anti-Flag detection
T3 construct: whole, on cells; in the context of the heterodimeric receptor; also called IL12Rb1

[5] = target: T4, human CD4, cell-expressed (human, UniProt P01730 26-458); assay: flow cytometry on MOLM-13 cells (CD4, no IL12R or IL23R), upper right panel
T4 construct: whole, on cells

[6] = target: T1, human IL-23R, cell-expressed; assay: cell-based or functional assay
[7] = target: T2, human IL-23R extracellular domain …; assay: SPR Biacore T100, captured IL-23R-Fc
[8] = target: T5, human CXCR4 (on cells, viral lipoparticles or membrane extracts) (human, UniProt P61073 1-352); assay: FACS, Jurkat E6-1 cells
T5 construct: whole, on cells; also called hCXCR4 VLPs; CXCR4-lip

[9] = target: T5, human CXCR4 (on cells, viral …); assay: cell-based or functional assay
[10] = target: T5, human CXCR4 (on cells, viral …); assay: FACS, MOLM-13 cells
[11] = target: T5, human CXCR4 (on cells, viral …); assay: flow cytometry on MOLM-13 cells (IL-3Ra higher than CXCR4)
[12] = target: T5, human CXCR4 (on cells, viral …); assay: FACS, Jurkat cells
[13] = target: T5, human CXCR4 (on cells, viral …); assay: flow cytometry on U-937 cells (CXCR4, virtually no IL-3Ra)
[14] = target: T5, human CXCR4 (on cells, viral …); assay: cell-based or functional assay; remark: listed apart in the source
[15] = target: T5, human CXCR4 (on cells, viral …); assay: cell-based or functional assay; remark: listed apart in the source
[16] = target: T5, human CXCR4 (on cells, viral …); assay: cell-based or functional assay; remark: listed apart in the source
[17] = target: T5, human CXCR4 (on cells, viral …); assay: cell-based or functional assay; remark: listed apart in the source
[18] = target: T5, human CXCR4 (on cells, viral …); assay: flow cytometry on THP-1 cells (CXCR4 and IL-3Ra)
[19] = target: T6, recombinant IL-3Rα ectodomain (human, UniProt P26951 19-305); assay: ELISA on recombinant IL-3Ra ectodomain (both lower panels)
T6 construct: extracellular domain; also called recombinant IL-3Ra; biotinylated-IL-3Rα ectodomain
T6 sequence (looked up): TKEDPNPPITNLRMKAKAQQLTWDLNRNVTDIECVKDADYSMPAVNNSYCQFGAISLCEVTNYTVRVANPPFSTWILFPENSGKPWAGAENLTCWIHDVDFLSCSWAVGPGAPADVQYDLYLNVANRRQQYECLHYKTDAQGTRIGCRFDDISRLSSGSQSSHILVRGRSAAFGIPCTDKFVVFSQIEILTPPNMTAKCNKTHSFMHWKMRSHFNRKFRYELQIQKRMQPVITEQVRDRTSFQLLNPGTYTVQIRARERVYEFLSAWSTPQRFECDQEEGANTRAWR

[20] = target: T5, human CXCR4 (on cells, viral …); assay: cell-based or functional assay; remark: listed apart in the source
[21] = target: T5, human CXCR4 (on cells, viral …); assay: [125I]-SDF-1 displacement, Hek-CXCR4 membrane extracts
[22] = target: T5, human CXCR4 (on cells, viral …); assay: flow cytometry on THP-1 cells (CD4 and CXCR4), detection via tag
[23] = target: T4, human CD4, cell-expressed; assay: FACS, THP-1 cells
[24] = target: T4, human CD4, cell-expressed; assay: cell-based or functional assay
[25] = target: T4, human CD4, cell-expressed; assay: FACS, Jurkat E6-1 cells (CD4 low)
[26] = target: T4, human CD4, cell-expressed; assay: FACS, MOLM-13 cells
[27] = target: T4, human CD4, cell-expressed; assay: FACS, human T cells
[28] = target: T4, human CD4, cell-expressed; assay: cell-based or functional assay; remark: listed apart in the source
[29] = target: T4, human CD4, cell-expressed; assay: FACS, Jurkat E6.1 cells (CD4 no or low)
[30] = target: T4, human CD4, cell-expressed; assay: cell-based or functional assay; remark: listed apart in the source
[31] = target: T4, human CD4, cell-expressed; assay: cell-based or functional assay; remark: listed apart in the source
[32] = target: T4, human CD4, cell-expressed; assay: FACS, MOLM-13 cells; remark: listed apart in the source
[33] = target: T5, human CXCR4 (on cells, viral …); assay: ELISA on coated hCXCR4 lipoparticles against null lipoparticles, anti-c-myc detection

T5 sequence (P61073 whole entry): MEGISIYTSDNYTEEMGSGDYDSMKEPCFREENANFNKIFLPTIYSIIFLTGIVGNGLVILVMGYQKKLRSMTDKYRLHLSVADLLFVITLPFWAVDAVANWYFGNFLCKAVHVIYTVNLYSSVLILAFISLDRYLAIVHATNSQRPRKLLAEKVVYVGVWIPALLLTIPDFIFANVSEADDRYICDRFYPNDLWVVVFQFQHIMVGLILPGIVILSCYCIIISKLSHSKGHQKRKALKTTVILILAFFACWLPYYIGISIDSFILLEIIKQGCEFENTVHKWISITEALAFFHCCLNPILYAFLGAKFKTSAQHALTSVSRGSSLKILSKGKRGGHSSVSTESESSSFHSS

B1: IL23R#19: 150D02 (VHH)
VHH: EVQLVESGGGLVQPGGSLTLSCVASGRTFSTDVMGWFRQAPGKEREFVAAHRTSGISTVYAASVKGRFTISRDNAKNTVYLGMKSLKPEDTAVYVCAAGSDASGGYDYWGQGTLVTVSS
notes: also called LG150D02
B1 gave an EC50 [1] of 20 nM, an IC50 [2] of 1.7 nM and an IC50 [3] of 4.7 nM. For the same binder, the binding result [4] was “no binding (tested: 250 nM)”, the binding result [5] was “no binding (tested: 1E-6 M)” and the “IC50, IL-23 dependent IL-17 release, PBMC D840” value [6] was 100 nM. The Kd [7] was 11 nM, the koff [7] was 0.0081 s⁻¹ and the kon [7] was 730000 M⁻¹ s⁻¹.

B2: 281F12 (VHH)
VHH: EVQLVESGGGLVQAGDSLRLSCAASGRAFSRYAMGWFRQAPGKEREFVAAIGWGPSKTNYADSVKGRFTISRDNAKNTVYLQMNTLKPEDTAVYSCAAKFVNTDSTWSRSEMYTYWGQGTLVTVSS
notes: also called CXCR4#2; 4CXCR281F12-FLAG3-HIS6
In the case of B2, the EC50 [8] is reported as 7 nM, the “IC50, HIV-1 NL4.3 wt, MT-4” value [9] is reported as 22.7 nM and the “IC50, NL4.3 2G12 res., MT-4” value [9] is reported as 17.3 nM. The “IC50, NL4.3 AMD-3100 res., MT-4” value [9] was over 1670 nM, the “IC50, NL4.3 CD4#8 res., MT-4” value [9] was 87.3 nM and the “IC50, NL4.3 CXCL-12res., MT-4” value [9] was 220 nM. For the same binder, the “IC50, NL4.3 CXCR4#2 res, MT-4” value [9] was 2330 nM, the EC50 [10] was 5.2 nM and the “EC50 (read off the curve)” value [11] was about 20 nM. For the same binder, the EC50 [12] was 7.8 nM, the “EC50 (read off the curve)” value [13] was about 10 nM and the “IC50, HIV-1 BaL (R5), PBMC” value [14] was over 1670 nM. The “IC50, HIV-1 NL4.3 (X4), MT-4” value [14] was 67.1 nM, the “IC50, HIV-1 NL4.3 (X4), PBMC” value [14] was 29.3 nM and the “IC50, HIV-1 NL4.3 (X4), U87” value [14] was over 6670 nM. The “IC50, HIV-1 HE, MT-4” value [15] was 10 nM, the “IC50, HIV-1 NL4.3, MT-4” value [15] was 22.7 nM and the “IC50, HIV-2 ROD, MT-4” value [15] was 86.7 nM. For the same binder, the “IC50, SDF-1 chemotaxis, Jurkat” value [16] was 68 nM, the “IC50, CXCL-12 chemotaxis, Jurkat E6-1” value [17] was 96.8 nM and the “IC50, CXCL-12 chemotaxis, MOLM-13” value [17] was 86 nM. For the same binder, the “EC50 (read off the curve)” value [18] was about 20 nM, the binding result [19] was “no binding (tested: 1E-6 M)” and the “IC50, SDF-1 chemotaxis, Jurkat E6-1” value [20] was 84.2 nM. The “IC50, SDF-1 chemotaxis, MOLM-13” value [20] was 86 nM, the Ki [21] was 26.9 nM and the “EC50 (read off the curve)” value [22] was about 6 nM.

B3: 3F11 (VHH)
VHH: EVQLVESGGGSVQPGGSLTLSCGTSGRTFNVMGWFRQAPGKEREFVAAVRWSSTGIYYTQYADSVKSRFTISRDNAKNTVYLEMNSLKPEDTAVYYCAADTYNSNPARWDGYDFRGQGTQVTVSS
notes: also called CD4#8; 03F11
In the case of B3, the EC50 [23] is reported as 1 nM, the “IC50, HIV-1 NL4.3 wt, MT-4” value [24] is reported as 34.7 nM and the “IC50, NL4.3 2G12 res., MT-4” value [24] is reported as 23.3 nM. The “IC50, NL4.3 AMD-3100 res., MT-4” value [24] was 22.7 nM, the “IC50, NL4.3 CD4#8 res., MT-4” value [24] was over 6700 nM and the “IC50, NL4.3 CXCL-12res., MT-4” value [24] was 153 nM. For the same binder, the “IC50, NL4.3 CXCR4#2 res, MT-4” value [24] was over 6700 nM, the EC50 [25] was 61 nM and the EC50 [26] was 0.6 nM. For the same binder, the binding result [4] was “no binding (tested: 250 nM)”, the EC50 [27] was 0.76 nM and the “IC50, HIV-1 NL4.3 (X4), MT-4” value [28] was 66.7 nM. For the same binder, the “IC50, HIV-1 NL4.3 (X4), PBMC” value [28] was 580 nM, the “IC50, HIV-1 NL4.3 (X4), U87” value [28] was over 1330 nM and the EC50 [29] was 1.1 nM. The “IC50, HIV-1 NL4.3 neutralization, PBMCs” value [30] was 29.3 nM, the “IC50, HIV-1 HE, MT-4” value [31] was 10 nM and the “IC50, HIV-1 NL4.3, MT-4” value [31] was 34.7 nM. For the same binder, the “IC50, HIV-2 ROD, MT-4” value [31] was 22.7 nM, the EC50 [32] was 0.7 nM and the binding result [33] was “no binding (tested: 100 nM)”.
